In patent publication US20220326223:

Target: human APP (695 amino acid isoform), P05067

B1: human ADAMTS4 (A disintegrin and metalloproteinase with thrombospondin motifs 4) (protein)
chain: FASLSRFVETLVVADDKMAAFHGAGLKRYLLTVMAAAAKAFKHPSIRNPVSLVVTRLVILGSGEEGPQVGPSAAQTLRSFCAWQRGLNTPEDSDPDHFDTAILFTRQDLCGVSTCDTLGMADVGTVCDPARSCAIVEDDGLQSAFTAAHELGHVFNMLHDNSKPCISLNGPLSTSRHVMAPVMAHVDPEEPWSPCSARFITDFLDNGYGHCLLDKPEAPLHLPVTFPGKDYDADRQCQLTFGPDSRHCPQLPPPCAALWCSGHLNGHAMCQTKHSPWADGTPCGPAQACMGGRCLHMDQLQDFNIPQAGGWGPWGPWGDCSRTCGGGVQFSSRDCTRPVPRNGGKYCEGRRTRFRSCNTEDCPTGSALTFREEQCAAYNHRTDLFKSFPGPMDWVPRYTGVAPQDQCKLTCQARALGYYYVLEPRVVDGTPCSPDSSSVCVQGRCIHAGCDRIIGSKKKFDKCMVCGGDGSGCSKQSGSFRKFRYGYNNVVTIPAGATHILVRQQGNAGHRSIYLALKLPDGSYALNGEYTLMPSPTDVVLPGAVSLRYSGATAASETLSGHGPLAQPLTLQVLVAGNPQDTRLRYSFFVPRPTPSTPRPTPQDWLHRRAQILEILRRRPWAGRK
- production amounts of APP669-711 (Aβ(-3-40)) and APP669-709 (Aβ(-3-38)) in culture supernatant (IP-MS), ADAMTS4 vector:empty vector 10:1 in APP stable HEK: tended to be rather slightly increased
